# From IntAct's records for PubMed 25910212
# B1: 5-aminolevulinate synthase, erythroid-specific, mitochondrial (Homo sapiens), P22557-2 (parent)
# chain: MVTAAMLLQCCPVLARGPTSLLGKVVKTHQFLFGIGRCPILATQGPNCSQIHLKATKAGGDSPSWAKGHCPFMLSELQDGKSKIVQKAAPEVQEDVKAFKTGNYVFSYDQFFRDKIMEKKQDHTYRVFKTVNRWADAYPFAQHFSEASVASKDVSVWCSNDYLGMSRHPQVLQATQETLQRHGAGAGGTRNISGTSKFHVELEQELAELHQKDSALLFSSCFVANDSTLFTLAKILPGCEIYSDAGNHASMIQGIRNSGAAKFVFRHNDPDHLKKLLEKSNPKIPKIVAFETVHSMDGAICPLEELCDVSHQYGALTFVDEVHAVGLYGSRGAGIGERDGIMHKIDIISGTLGKAFGCVGGYIASTRDLVDMVRSYAAGFIFTTSLPPMVLSGALESVRLLKGEEGQALRRAHQRNVKHMRQLLMDRGLPVIPCPSHIIPIRVGNAALNSKLCDLLLSKHGIYVQAINYPTVPRGEELLRLAPSPHHSPQMMEDFVEKLLLAWTAVGLPLQDVSVAACNFCRRPVHFELMSEWERSYFGNMGPQYVTTYA
# partner: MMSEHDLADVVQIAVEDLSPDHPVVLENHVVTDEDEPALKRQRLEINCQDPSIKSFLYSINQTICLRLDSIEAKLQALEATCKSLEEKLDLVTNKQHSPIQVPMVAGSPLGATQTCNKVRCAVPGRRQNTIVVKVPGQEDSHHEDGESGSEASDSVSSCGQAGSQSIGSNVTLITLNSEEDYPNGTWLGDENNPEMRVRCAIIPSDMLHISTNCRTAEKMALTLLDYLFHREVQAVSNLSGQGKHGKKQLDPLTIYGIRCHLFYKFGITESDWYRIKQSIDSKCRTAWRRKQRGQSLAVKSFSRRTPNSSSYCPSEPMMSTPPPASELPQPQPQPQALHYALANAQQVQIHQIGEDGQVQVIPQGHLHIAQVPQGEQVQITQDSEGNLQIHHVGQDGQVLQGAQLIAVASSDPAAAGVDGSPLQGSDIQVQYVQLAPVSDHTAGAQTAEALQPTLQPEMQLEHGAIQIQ
# B2: ATP synthase mitochondrial F1 complex assembly factor 2 (Homo sapiens), Q8N5M1 (parent)
# chain: MWRSCLRLRDGGRRLLNRPAGGPSASMSPGPTIPSPARAYAPPTERKRFYQNVSITQGEGGFEINLDHRKLKTPQAKLFTVPSEALAIAVATEWDSQQDTIKYYTMHLTTLCNTSLDNPTQRNKDQLIRAAVKFLDTDTICYRVEEPETLVELQRNEWDPIIEWAEKRYGVEISSSTSIMGPSIPAKTREVLVSHLASYNTWALQGIEFVAAQLKSMVLTLGLIDLRLTVEQAVLLSRLEEEYQIQKWGNIEWAHDYELQELRARTAAGTLFIHLCSESTTVKHKLLKE
# partner: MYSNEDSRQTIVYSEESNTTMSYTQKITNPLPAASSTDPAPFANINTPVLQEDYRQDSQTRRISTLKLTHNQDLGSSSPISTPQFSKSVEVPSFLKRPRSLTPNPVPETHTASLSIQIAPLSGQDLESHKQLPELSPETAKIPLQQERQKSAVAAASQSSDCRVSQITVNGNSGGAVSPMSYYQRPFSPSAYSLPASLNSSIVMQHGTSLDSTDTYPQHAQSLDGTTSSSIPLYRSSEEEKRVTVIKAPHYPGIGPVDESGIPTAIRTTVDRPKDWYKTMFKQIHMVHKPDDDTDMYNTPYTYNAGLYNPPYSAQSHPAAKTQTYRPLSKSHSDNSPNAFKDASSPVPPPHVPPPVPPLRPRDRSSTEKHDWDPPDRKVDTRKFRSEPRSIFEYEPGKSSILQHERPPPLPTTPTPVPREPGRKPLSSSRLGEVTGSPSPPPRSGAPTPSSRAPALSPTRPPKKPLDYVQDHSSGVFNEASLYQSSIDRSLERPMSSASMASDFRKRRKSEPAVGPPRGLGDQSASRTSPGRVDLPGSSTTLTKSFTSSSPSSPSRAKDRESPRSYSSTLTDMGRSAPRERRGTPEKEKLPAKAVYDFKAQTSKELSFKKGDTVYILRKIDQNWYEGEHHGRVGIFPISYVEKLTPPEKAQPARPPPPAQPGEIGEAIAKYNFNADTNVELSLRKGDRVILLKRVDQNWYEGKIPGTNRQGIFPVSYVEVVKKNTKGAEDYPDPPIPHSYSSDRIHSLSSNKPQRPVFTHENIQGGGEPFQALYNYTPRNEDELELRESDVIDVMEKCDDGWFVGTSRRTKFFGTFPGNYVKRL
# B3: Adenosylhomocysteinase (Homo sapiens), P23526 (parent)
# chain: MSDKLPYKVADIGLAAWGRKALDIAENEMPGLMRMRERYSASKPLKGARIAGCLHMTVETAVLIETLVTLGAEVQWSSCNIFSTQDHAAAAIAKAGIPVYAWKGETDEEYLWCIEQTLYFKDGPLNMILDDGGDLTNLIHTKYPQLLPGIRGISEETTTGVHNLYKMMANGILKVPAINVNDSVTKSKFDNLYGCRESLIDGIKRATDVMIAGKVAVVAGYGDVGKGCAQALRGFGARVIITEIDPINALQAAMEGYEVTTMDEACQEGNIFVTTTGCIDIILGRHFEQMKDDAIVCNIGHFDVEIDVKWLNENAVEKVNIKPQVDRYRLKNGRRIILLAEGRLVNLGCAMGHPSFVMSNSFTNQVMAQIELWTHPDKYPVGVHFLPKKLDEAVAEAHLGKLNVKLTKLTEKQAQYLGMSCDGPFKPDHYRY
# partner: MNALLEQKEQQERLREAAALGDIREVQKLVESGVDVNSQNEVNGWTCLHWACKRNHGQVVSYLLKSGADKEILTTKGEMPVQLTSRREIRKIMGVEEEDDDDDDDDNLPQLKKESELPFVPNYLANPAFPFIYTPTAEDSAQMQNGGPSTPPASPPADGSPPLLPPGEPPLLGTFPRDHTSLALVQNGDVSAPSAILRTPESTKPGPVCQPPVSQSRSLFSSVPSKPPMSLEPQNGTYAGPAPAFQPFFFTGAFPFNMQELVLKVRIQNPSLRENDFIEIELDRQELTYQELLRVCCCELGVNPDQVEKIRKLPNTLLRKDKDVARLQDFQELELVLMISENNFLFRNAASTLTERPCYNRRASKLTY
# Variants of: B1
# Settings: with BANP
row,effect of a mutation on the interaction,Variant
1,disrupting interaction strength,MVTAAMLLQCCPVLARGPTSLLGKVVKTHQFLFGIGRCPILATQGPNCSQIHLKATKAGGDSPSWAKGHCPFMLSELQDGKSKIVQKAAPEVQEDVKAFKTGNYVFSYDQFFRDKIMEKKQDHTYRVFKTVNRWADAYPFAQHFSEASVASKDVSVWCSNDYLGMSRHPQVLQATQETLQRHGAGAGGTRNISGTSKFHVELEQELAELHQKDSALLFSSCFVANDSTLFTLAKILPGCEIYSDAGNHASMTQGIRNSGAAKFVFRHNDPDHLKKLLEKSNPKIPKIVAFETVHSMDGAICPLEELCDVSHQYGALTFVDEVHAVGLYGSRGAGIGERDGIMHKIDIISGTLGKAFGCVGGYIASTRDLVDMVRSYAAGFIFTTSLPPMVLSGALESVRLLKGEEGQALRRAHQRNVKHMRQLLMDRGLPVIPCPSHIIPIRVGNAALNSKLCDLLLSKHGIYVQAINYPTVPRGEELLRLAPSPHHSPQMMEDFVEKLLLAWTAVGLPLQDVSVAACNFCRRPVHFELMSEWERSYFGNMGPQYVTTYA [I252T]
2,with no effect,MVTAAMLLQCCPVLARGPTSLLGKVVKTHQFLFGIGRCPILATQGPNCSQIHLKATKAGGDSPSWAKGHCPFMLSELQDGKSKIVQKAAPEVQEDVKAFKTGNYVFSYDQFFRDKIMEKKQDHTYRVFKTVNHWADAYPFAQHFSEASVASKDVSVWCSNDYLGMSRHPQVLQATQETLQRHGAGAGGTRNISGTSKFHVELEQELAELHQKDSALLFSSCFVANDSTLFTLAKILPGCEIYSDAGNHASMIQGIRNSGAAKFVFRHNDPDHLKKLLEKSNPKIPKIVAFETVHSMDGAICPLEELCDVSHQYGALTFVDEVHAVGLYGSRGAGIGERDGIMHKIDIISGTLGKAFGCVGGYIASTRDLVDMVRSYAAGFIFTTSLPPMVLSGALESVRLLKGEEGQALRRAHQRNVKHMRQLLMDRGLPVIPCPSHIIPIRVGNAALNSKLCDLLLSKHGIYVQAINYPTVPRGEELLRLAPSPHHSPQMMEDFVEKLLLAWTAVGLPLQDVSVAACNFCRRPVHFELMSEWERSYFGNMGPQYVTTYA [R133H]
3,disrupting interaction strength,MVTAAMLLQCCPVLARGPTSLLGKVVKTHQFLFGIGRCPILATQGPNCSQIHLKATKAGGDSPSWAKGHCPFMLSELQDGKSKIVQKAAPEVQEDVKAFKTGNYVFSYDQFFRDKIMEKKQDHTYRVFKTVNRWADAYPFAQHFSEASVASKDVSVWCSNDYLGMSRHPQVLQATQETLQRHGAGAGGTRNISGTSKFHVELEQELAELHQKDSALLFSSCFVANDSTLFTLAKILPGCEIYSDAGNHASMIQGIRNSGAAKFVFRHNDPDHLKKLLEKSNPKIPKIVAFETVHSMDGAICPLEELCDVSHQYGALTFVDEVHAVGLYGSRGAGIGERDGIMHKIDIISGTLGKAFGCVGGYIASTRDLVDMVRSYAAGFIFTTSLPPMVLSGALESVRLLKGEEGQALRRAHQRNVKHMRQLLMDRGLPVIPCPSHINPIRVGNAALNSKLCDLLLSKHGIYVQAINYPTVPRGEELLRLAPSPHHSPQMMEDFVEKLLLAWTAVGLPLQDVSVAACNFCRRPVHFELMSEWERSYFGNMGPQYVTTYA [I439N]

# Variants of: B2
# Settings: with SORBS2, O94875-10
row,effect of a mutation on the interaction,Variant
1,disrupting interaction strength,MWRSCLRLRDGGRRLLNRPAGGPSASMSPGPTIPSPARAYAPPTERKRFYQNVSITQGEGGFEINLDHRKLKTPQAKLFTVPSEALAIAVATERDSQQDTIKYYTMHLTTLCNTSLDNPTQRNKDQLIRAAVKFLDTDTICYRVEEPETLVELQRNEWDPIIEWAEKRYGVEISSSTSIMGPSIPAKTREVLVSHLASYNTWALQGIEFVAAQLKSMVLTLGLIDLRLTVEQAVLLSRLEEEYQIQKWGNIEWAHDYELQELRARTAAGTLFIHLCSESTTVKHKLLKE [W94R]

# Variants of: B3
# Settings: with anr40_human ANKRD40, Q6AI12
row,effect of a mutation on the interaction,Variant
1,with no effect,Y143C
2,with no effect,D86G
